Measurements published in article doi:10.1101/2024.10.23.619877.

Biological target: 20S proteasome (human housekeeping 20S core) (human) (UniProt P60900)
Experiment: AFM imaging with morphometric analysis of single particles

Chain of UniProt P60900 (P60900 whole entry, looked up): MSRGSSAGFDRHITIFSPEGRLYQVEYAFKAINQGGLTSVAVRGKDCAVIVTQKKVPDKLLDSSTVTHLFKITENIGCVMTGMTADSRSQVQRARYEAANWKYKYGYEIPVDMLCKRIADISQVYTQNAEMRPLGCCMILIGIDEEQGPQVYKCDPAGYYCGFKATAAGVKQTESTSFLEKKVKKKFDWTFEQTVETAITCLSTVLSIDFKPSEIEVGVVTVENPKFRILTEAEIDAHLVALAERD

percent of particles that are 26S proteasomes (with 2 µM Aβ42 oligomers): 52.9%
percent of particles that are 26S proteasomes (without Aβ): 75.8%
Substance: 19S regulatory particle (complex)
